What was measured:
SRSF1 RRM1+2 (ASF/SF2) [1] = target: T1, SRSF1 RRM1+2 (ASF/SF2) (UniProt Q07955 1-196); assay: fluorescence anisotropy
SRSF1 RRM1+2 (ASF/SF2) [2] = target: T1, SRSF1 RRM1+2 (ASF/SF2); assay: competition
SRSF1 RRM1+2 (ASF/SF2) [3] = target: T1, SRSF1 RRM1+2 (ASF/SF2); assay: competition; remark: listed apart in the source

T1 sequence (Q07955 1-196): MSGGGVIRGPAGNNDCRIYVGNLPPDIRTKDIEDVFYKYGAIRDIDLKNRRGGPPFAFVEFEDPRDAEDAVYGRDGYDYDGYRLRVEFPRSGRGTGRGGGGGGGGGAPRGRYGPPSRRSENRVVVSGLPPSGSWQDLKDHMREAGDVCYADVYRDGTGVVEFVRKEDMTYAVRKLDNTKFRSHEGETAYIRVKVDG

B1: SRSF1 canonical motif RNA (ssRNA)
RNA: AAAUCAGAGGAAAA
With B1 the Kd (SRSF1 RRM1+2 (ASF/SF2) [1]) was 21 ± 3 nM.

B2: (G4C2)4 unlabeled, folded without K+ (ssRNA)
RNA: GGGGCCGGGGCCGGGGCCGGGGCC
B2 was tested, and the Kd (SRSF1 RRM1+2 (ASF/SF2) [2]) was < 21 nM.

B3: (A4U2)4 unlabeled (ssRNA)
RNA: AAAAUUAAAAUUAAAAUUAAAAUU
Binder B3 has a Kd (SRSF1 RRM1+2 (ASF/SF2) [3]) of ~200 nM.

Source: PMC11983130
